# Assay results published in patent US20120220489A1.
# Columns and labels:
# [1] = target: pRb-BSA 1x peptide-protein conjugate (bovine); test: RPA, competition: +free H3 peptide 10000 nM
# [2] = target: ERK2 (p42), human, Biosource PHO 0104 (human) (UniProt P28482); test: RPA, competition: +free H3 peptide 10000 nM
# [3] = target: ERK1 (p42) active (phospho), human, Active Motif 31 152 (human) (UniProt P27361); test: RPA, competition: +free H3 peptide 10000 nM
# [4] = target: Erk1-BSA 2.7x peptide-protein conjugate (human; bovine); test: RPA, competition: +free H3 peptide 10000 nM
# [5] = target: ERK1 (p44) inactive (GST tagged), human, Invitrogen PV 3312 (human) (UniProt P27361); test: RPA, competition: +free H3 peptide 10000 nM
# [6] = target: pRb recombinant protein, human, Active Motif 31 128 (human) (UniProt P06400); test: RPA, competition: +free H3 peptide 10000 nM
# [7] = target: ERK1 (p44), human, Cell Signaling Technology 7416 (human) (UniProt P27361); test: RPA, competition: +free H3 peptide 10000 nM
# [8] = target: Histone H3-BSA 2.7x peptide-protein conjugate (bovine); test: RPA, competition: +free H3 peptide 10000 nM
# [9] = target: pErk1/2-BSA 2.7x peptide-protein conjugate (human; bovine); test: RPA, normal assay
# Chain of pErk1/2-BSA 2.7x peptide-protein conjugate (human; bovine) (P02769 25-607 limits assumed): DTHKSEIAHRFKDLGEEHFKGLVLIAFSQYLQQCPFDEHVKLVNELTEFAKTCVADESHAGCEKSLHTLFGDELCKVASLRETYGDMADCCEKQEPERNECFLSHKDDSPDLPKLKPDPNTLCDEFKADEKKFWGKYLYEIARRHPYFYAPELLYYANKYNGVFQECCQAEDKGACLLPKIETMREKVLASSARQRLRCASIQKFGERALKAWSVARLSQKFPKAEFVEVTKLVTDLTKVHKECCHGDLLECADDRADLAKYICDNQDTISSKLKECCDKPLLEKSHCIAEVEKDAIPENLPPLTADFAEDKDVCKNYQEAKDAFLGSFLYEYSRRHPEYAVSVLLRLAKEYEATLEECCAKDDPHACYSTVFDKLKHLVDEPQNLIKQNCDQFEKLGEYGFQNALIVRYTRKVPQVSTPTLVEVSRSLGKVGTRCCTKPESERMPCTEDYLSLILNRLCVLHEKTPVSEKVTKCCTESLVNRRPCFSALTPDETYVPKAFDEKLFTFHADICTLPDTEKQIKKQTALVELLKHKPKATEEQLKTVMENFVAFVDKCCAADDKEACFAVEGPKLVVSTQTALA
# Chain of Erk1-BSA 2.7x peptide-protein conjugate (human; bovine) (peptide, as listed by the source limits assumed, chain 1 of 2): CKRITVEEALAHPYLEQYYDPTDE
# Chain of Erk1-BSA 2.7x peptide-protein conjugate (human; bovine) (P02769 25-607 limits assumed, chain 2 of 2): as the sequence (P02769 25-607 limits assumed) above
# Chain of UniProt P06400 (P06400 whole entry): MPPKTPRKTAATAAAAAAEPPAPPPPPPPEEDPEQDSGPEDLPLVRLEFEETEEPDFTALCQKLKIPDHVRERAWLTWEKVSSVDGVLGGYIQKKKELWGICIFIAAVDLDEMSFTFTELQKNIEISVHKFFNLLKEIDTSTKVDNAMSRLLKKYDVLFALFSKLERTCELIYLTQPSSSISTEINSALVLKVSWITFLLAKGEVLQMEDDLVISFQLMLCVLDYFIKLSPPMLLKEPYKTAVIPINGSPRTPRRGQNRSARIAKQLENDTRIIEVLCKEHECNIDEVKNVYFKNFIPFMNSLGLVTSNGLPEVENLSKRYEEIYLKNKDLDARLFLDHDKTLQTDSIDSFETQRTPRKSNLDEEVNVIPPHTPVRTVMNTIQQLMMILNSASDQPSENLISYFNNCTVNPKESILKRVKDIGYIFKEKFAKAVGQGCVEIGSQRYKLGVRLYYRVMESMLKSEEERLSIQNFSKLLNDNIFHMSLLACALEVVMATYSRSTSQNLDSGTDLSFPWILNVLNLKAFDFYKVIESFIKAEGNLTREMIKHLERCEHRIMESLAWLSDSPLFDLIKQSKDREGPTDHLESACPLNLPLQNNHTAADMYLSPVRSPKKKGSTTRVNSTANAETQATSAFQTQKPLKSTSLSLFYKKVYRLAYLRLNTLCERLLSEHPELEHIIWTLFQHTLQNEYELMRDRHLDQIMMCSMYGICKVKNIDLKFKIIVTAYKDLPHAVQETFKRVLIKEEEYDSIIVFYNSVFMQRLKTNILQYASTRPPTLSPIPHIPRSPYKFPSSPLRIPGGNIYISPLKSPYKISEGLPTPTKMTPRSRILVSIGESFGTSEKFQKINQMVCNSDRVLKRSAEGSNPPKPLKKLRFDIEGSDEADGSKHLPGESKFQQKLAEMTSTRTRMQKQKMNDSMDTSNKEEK
# Chain of pRb-BSA 1x peptide-protein conjugate (bovine) (P02769 25-607 limits assumed): as the sequence (P02769 25-607 limits assumed) above
# Chain of Histone H3-BSA 2.7x peptide-protein conjugate (bovine) (P02769 25-607 limits assumed): as above
# Chain of UniProt P28482 (P28482 2-360 limits assumed): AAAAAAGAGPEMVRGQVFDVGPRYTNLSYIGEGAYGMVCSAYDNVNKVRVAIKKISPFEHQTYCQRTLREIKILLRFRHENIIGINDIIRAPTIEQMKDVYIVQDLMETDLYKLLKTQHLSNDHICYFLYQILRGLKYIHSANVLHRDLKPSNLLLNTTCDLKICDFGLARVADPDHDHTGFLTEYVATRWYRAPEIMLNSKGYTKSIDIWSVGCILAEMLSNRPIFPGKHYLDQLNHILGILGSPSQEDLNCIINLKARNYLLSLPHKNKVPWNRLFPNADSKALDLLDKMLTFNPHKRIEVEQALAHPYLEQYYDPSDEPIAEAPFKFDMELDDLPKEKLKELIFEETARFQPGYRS
maximum standard curve signal [1] [RFI],maximum standard curve signal [2] [RFI],maximum standard curve signal [3] [RFI],maximum standard curve signal [4] [RFI],maximum standard curve signal [5] [RFI],maximum standard curve signal [6] [RFI],maximum standard curve signal [7] [RFI],maximum standard curve signal [8] [RFI],maximum standard curve signal [9] [RFI],Substance
< 0.01,< 0.01,< 0.01,0.01,< 0.01,< 0.01,< 0.01,0.19,–,"Histone H3 antibody, Abcam ab1791"
–,–,–,–,–,–,–,–,3.47,"p44/42 MAPK phospho (pERK1/2) Thr202/Tyr204 antibody, Cell Signaling Technology #9101"
